Tests used:
SUDV GP = biological target: T1, SUDV GP (SUDV, UniProt Q7T9D9 33-650); experiment: ELISA, coated GP 1 μg/mL, antibody titrated from 10 μg/mL
T1 sequence: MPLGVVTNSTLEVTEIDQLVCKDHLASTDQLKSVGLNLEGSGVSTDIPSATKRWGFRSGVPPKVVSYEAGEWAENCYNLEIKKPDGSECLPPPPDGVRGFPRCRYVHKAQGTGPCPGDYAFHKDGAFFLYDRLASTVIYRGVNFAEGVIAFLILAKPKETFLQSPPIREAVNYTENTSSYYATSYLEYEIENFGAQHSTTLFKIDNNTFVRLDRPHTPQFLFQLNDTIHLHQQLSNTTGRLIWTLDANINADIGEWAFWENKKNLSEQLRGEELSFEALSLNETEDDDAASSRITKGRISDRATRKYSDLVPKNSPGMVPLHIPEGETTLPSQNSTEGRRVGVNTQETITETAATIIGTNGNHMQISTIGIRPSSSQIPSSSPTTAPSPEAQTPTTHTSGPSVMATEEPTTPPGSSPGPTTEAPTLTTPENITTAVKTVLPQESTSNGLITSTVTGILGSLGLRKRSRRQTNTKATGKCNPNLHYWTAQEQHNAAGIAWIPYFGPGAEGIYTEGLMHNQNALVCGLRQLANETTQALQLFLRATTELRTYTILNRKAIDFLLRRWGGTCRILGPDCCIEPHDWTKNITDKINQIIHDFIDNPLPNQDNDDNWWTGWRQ

EBOV GP = biological target: T2, EBOV GP (Ebola virus (EBOV), UniProt Q05320 33-650); experiment: as above
T2 sequence: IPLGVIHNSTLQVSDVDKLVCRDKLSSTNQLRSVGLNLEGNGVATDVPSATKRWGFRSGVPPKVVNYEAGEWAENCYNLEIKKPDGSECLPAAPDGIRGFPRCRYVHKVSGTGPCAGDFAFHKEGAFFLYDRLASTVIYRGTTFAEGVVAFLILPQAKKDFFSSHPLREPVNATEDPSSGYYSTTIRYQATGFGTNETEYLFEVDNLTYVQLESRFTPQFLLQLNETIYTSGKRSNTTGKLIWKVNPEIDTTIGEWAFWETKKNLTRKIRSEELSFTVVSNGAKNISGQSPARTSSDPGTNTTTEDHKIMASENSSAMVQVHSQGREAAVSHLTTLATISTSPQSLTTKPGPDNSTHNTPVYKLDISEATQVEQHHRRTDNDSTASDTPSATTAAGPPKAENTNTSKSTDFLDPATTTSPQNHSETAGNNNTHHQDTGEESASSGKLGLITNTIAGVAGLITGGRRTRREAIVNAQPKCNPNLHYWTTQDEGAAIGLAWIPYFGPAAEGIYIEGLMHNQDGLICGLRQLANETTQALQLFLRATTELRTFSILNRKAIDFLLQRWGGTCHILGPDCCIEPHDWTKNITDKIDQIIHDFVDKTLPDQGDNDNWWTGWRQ

RESTV GP = biological target: T3, RESTV GP (RESTV, UniProt Q66799 34-651); experiment: as above
T3 sequence: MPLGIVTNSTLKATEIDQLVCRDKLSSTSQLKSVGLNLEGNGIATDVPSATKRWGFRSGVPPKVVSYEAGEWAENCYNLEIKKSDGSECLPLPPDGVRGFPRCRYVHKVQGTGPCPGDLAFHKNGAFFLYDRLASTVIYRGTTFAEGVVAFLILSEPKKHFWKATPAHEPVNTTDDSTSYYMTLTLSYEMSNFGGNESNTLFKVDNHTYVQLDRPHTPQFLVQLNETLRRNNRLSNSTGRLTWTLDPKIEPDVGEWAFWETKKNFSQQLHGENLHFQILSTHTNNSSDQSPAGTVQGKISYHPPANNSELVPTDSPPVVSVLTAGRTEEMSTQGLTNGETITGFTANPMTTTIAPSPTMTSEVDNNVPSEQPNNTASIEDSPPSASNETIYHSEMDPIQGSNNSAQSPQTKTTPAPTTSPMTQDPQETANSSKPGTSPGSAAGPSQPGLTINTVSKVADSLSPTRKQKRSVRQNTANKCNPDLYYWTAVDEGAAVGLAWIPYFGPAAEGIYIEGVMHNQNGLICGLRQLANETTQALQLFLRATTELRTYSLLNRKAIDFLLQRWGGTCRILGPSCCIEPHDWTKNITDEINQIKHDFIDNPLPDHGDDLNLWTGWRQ

GP 95-295 = GP 95-295 (Ebola virus (EBOV), UniProt Q05320 95-295); experiment: ELISA on coated truncated GP
sGP = sGP (Ebola virus (EBOV), UniProt Q05320 33-295); experiment: ELISA on coated truncated GP
GP1 = GP1 (Ebola virus (EBOV), UniProt Q05320 33-501); experiment: ELISA on coated truncated GP

B1: 抗埃博拉病毒糖蛋白GP1亚基的单克隆抗体5E9 (antibody, V domains shown)
VH: EVQLLESGGGLVKPGGSLRLSCVASGFTFTNAWMNWVRQAPGKGLEWVGRIKSKTDSGTTDYAAPVNGRFTISRDDSKNTLYLQMNSLKTEDTAVYYCTTRYQYNGMDVWGQGTTVTVSS
VL: QPVLTQPPSVSGAPGQRVTISCTGRSSNIGAGYDVHWYQHLPGTAPKLLIYANTNRPSGVPDRFSGSKSGTSASLAITGLQPGDEADYYCQSYDSRLSDHVVFGGGTKLTVLG
Work on B1 yielded an EC50 (SUDV GP) of over 1000 ng/mL, an EC50 (EBOV GP) of 6 ng/mL and an EC50 (RESTV GP) of 149 ng/mL. The EC50 (GP 95-295) was 11.8 ng/mL, the EC50 (sGP) was 5 ng/mL and the EC50 (GP1) was 4.1 ng/mL.

Reference: patent CN111138530A (INST MILITARY MEDICINE ACADEMY MILITARY SCIENCES PLA, dated 2020)
